How the values were obtained:
[1] = target: heteropentameric α1β mutated (α1βY240A) glycine receptor (rat) (UniProt P07727)
[2] = target: heteropentameric α1β wild type glycine receptor (rat) (UniProt P07727)

“Interleukin-1β (from UniProt P01584 117-269) (ligand)” was tested, and the current decay time constant (τ) of glycine (50 μM)-activated currents after perfusion of IL-1β (10 ng/ml); whole-cell patch clamp, transfected HEK293T cells (Figure 4A) [1] was 3370 ms and the current decay time constant (τ) of glycine (50 μM)-activated currents after perfusion of IL-1β (10 ng/ml); whole-cell patch clamp, transfected HEK293T cells (Figure 4A) [2] was 35400 ms.

Source: paper PMC7973117
